According to US20180155451A1 (published 2018):

T1: FcγRIIb (human, UniProt P31994 43-217)
T1 construct: extracellular domain; also called FcgRIIb; 2b
T1 sequence (looked up): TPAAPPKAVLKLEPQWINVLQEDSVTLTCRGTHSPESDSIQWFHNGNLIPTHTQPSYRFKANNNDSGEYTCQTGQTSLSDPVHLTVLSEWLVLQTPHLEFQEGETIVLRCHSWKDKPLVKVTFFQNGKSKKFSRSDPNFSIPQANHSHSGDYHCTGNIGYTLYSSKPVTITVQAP

T2: FcγRIIa R (human FcγRIIa, allotype R, Arg at position 131), extracellular domain with C-terminal His tag (human, UniProt P12318 34-217)
T2 construct: extracellular domain; expressed in FreeStyle293 cells; analyte in Biacore; also called 2aR; FcgRIIa R
T2 sequence (looked up): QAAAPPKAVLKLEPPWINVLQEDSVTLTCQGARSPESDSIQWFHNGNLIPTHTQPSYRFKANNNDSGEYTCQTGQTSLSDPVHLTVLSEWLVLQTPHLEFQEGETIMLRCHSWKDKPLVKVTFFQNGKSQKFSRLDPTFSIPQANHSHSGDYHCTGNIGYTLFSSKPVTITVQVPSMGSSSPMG

B1: GpH7-A5/GpH7-B3 variant Y300_01G/GpL16-k0 (antibody, human IgG1, kappa)
heavy 1: not shown
heavy 2: not shown
light: DIVMTQSPLSLPVTPGEPASISCQASESLVHSNRNTYLHWYLQKPGQSPQLLIYKVSNRFSGVPDRFSGSGSGTDFTLKISRVEAEDVGVYYCSQNTHVPPTFGQGTKVEIERTVAAPSVFIFPPSDEQLKSGTASVVCLLNNFYPREAKVQWKVDNALQSGNSQESVTEQDSKDSTYSLSSTLTLSKADYEKHKVYACEVTHQGLSSPVTKSFNRGEC
notes: heterodimerized IgG1, one H chain mutated; also called He Ab
B2: GpH7-A5/GpH7-B3 variant A327_04F/GpL16-k0 (antibody, human IgG1, kappa)
heavy 1: not shown
heavy 2: not shown
light: B1 light
notes: as for B1
B3: GpH7-A5/GpH7-B3 variant A327_06M/GpL16-k0 (antibody, human IgG1, kappa)
heavy 1: not shown
heavy 2: not shown
light: B1 light
notes: as for B1
B4: GpH7-A5/GpH7-B3 variant A327_05P/GpL16-k0 (antibody, human IgG1, kappa)
heavy 1: not shown
heavy 2: not shown
light: B1 light
notes: as for B1
B5: GpH7-A5/GpH7-B3 variant A327_12R/GpL16-k0 (antibody, human IgG1, kappa)
heavy 1: not shown
heavy 2: not shown
light: B1 light
notes: as for B1
B6: GpH7-A5/GpH7-B3 variant Y296_09D/GpL16-k0 (antibody, human IgG1, kappa)
heavy 1: not shown
heavy 2: not shown
light: B1 light
notes: heterodimerized antibody, mutation in one H chain only; also called He Ab
B7: GpH7-A5/GpH7-B3 variant Y296_04F/GpL16-k0 (antibody, human IgG1, kappa)
heavy 1: not shown
heavy 2: not shown
light: B1 light
notes: as for B6
B8: GpH7-A5/GpH7-B3 variant T335_15Y/GpL16-k0 (antibody, human IgG1, kappa)
heavy 1: not shown
heavy 2: not shown
light: B1 light
notes: as for B6
B9: GpH7-A5/GpH7-B3 variant Y296_16H/GpL16-k0 (antibody, human IgG1, kappa)
heavy 1: not shown
heavy 2: not shown
light: B1 light
notes: as for B6
B10: GpH7-A5/GpH7-B3 variant S337_15Y/GpL16-k0 (antibody, human IgG1, kappa)
heavy 1: not shown
heavy 2: not shown
light: B1 light
notes: as for B6
B11: GpH7-A5/GpH7-B3 variant S337_20W/GpL16-k0 (antibody, human IgG1, kappa)
heavy 1: not shown
heavy 2: not shown
light: B1 light
notes: as for B6
B12: GpH7-A5/GpH7-B3 variant T335_19Q/GpL16-k0 (antibody, human IgG1, kappa)
heavy 1: not shown
heavy 2: not shown
light: B1 light
notes: as for B6
B13: GpH7-A5/GpH7-B3 variant S337_11K/GpL16-k0 (antibody, human IgG1, kappa)
heavy 1: not shown
heavy 2: not shown
light: B1 light
notes: as for B6
B14: GpH7-A5/GpH7-B3 variant T335_07I/GpL16-k0 (antibody, human IgG1, kappa)
heavy 1: not shown
heavy 2: not shown
light: B1 light
notes: as for B6
B15: GpH7-A5/GpH7-B3 variant T335_20W/GpL16-k0 (antibody, human IgG1, kappa)
heavy 1: not shown
heavy 2: not shown
light: B1 light
notes: as for B6
B16: GpH7-A5/GpH7-B3 variant Y296_13S/GpL16-k0 (antibody, human IgG1, kappa)
heavy 1: not shown
heavy 2: not shown
light: B1 light
notes: as for B6
B17: GpH7-A5/GpH7-B3 variant S337_10E/GpL16-k0 (antibody, human IgG1, kappa)
heavy 1: not shown
heavy 2: not shown
light: B1 light
notes: as for B6
B18: GpH7-A5/GpH7-B3 variant T335_01G/GpL16-k0 (antibody, human IgG1, kappa)
heavy 1: not shown
heavy 2: not shown
light: B1 light
notes: as for B6
B19: GpH7-A5/GpH7-B3 variant Y296_19Q/GpL16-k0 (antibody, human IgG1, kappa)
heavy 1: not shown
heavy 2: not shown
light: B1 light
notes: as for B6
B20: GpH7-A5/GpH7-B3 variant S337_12R/GpL16-k0 (antibody, human IgG1, kappa)
heavy 1: not shown
heavy 2: not shown
light: B1 light
notes: as for B6
B21: GpH7-A5/GpH7-B3 variant T335_02A/GpL16-k0 (antibody, human IgG1, kappa)
heavy 1: not shown
heavy 2: not shown
light: B1 light
notes: as for B6
B22: GpH7-A5/GpH7-B3 variant T335_13S/GpL16-k0 (antibody, human IgG1, kappa)
heavy 1: not shown
heavy 2: not shown
light: B1 light
notes: as for B6
B23: GpH7-A5/GpH7-B3 variant Y296_07I/GpL16-k0 (antibody, human IgG1, kappa)
heavy 1: not shown
heavy 2: not shown
light: B1 light
notes: as for B6
B24: GpH7-A5/GpH7-B3 variant S239_07I/GpL16-k0 (antibody, human IgG1, kappa)
heavy 1: not shown
heavy 2: not shown
light: B1 light
notes: as for B6
B25: GpH7-A5/GpH7-B3 variant S337_04F/GpL16-k0 (antibody, human IgG1, kappa)
heavy 1: not shown
heavy 2: not shown
light: B1 light
notes: as for B6
B26: GpH7-A5/GpH7-B3 variant T335_10E/GpL16-k0 (antibody, human IgG1, kappa)
heavy 1: not shown
heavy 2: not shown
light: B1 light
notes: as for B6
B27: GpH7-A5/GpH7-B3 variant Y296_20W/GpL16-k0 (antibody, human IgG1, kappa)
heavy 1: not shown
heavy 2: not shown
light: B1 light
notes: as for B6
B28: GpH7-A5/GpH7-B3 variant S337_03V/GpL16-k0 (antibody, human IgG1, kappa)
heavy 1: not shown
heavy 2: not shown
light: B1 light
notes: as for B6
B29: GpH7-A5/GpH7-B3 variant S337_06M/GpL16-k0 (antibody, human IgG1, kappa)
heavy 1: not shown
heavy 2: not shown
light: B1 light
notes: as for B6
B30: GpH7-A5/GpH7-B3 variant T335_16H/GpL16-k0 (antibody, human IgG1, kappa)
heavy 1: not shown
heavy 2: not shown
light: B1 light
notes: as for B6
B31: GpH7-A5/GpH7-B3 variant T335_12R/GpL16-k0 (antibody, human IgG1, kappa)
heavy 1: not shown
heavy 2: not shown
light: B1 light
notes: as for B6
B32: GpH7-A5/GpH7-B3 variant S239_14T/GpL16-k0 (antibody, human IgG1, kappa)
heavy 1: not shown
heavy 2: not shown
light: B1 light
notes: as for B6
B33: GpH7-A5/GpH7-B3 variant S239_06M/GpL16-k0 (antibody, human IgG1, kappa)
heavy 1: not shown
heavy 2: not shown
light: B1 light
notes: as for B6
B34: GpH7-A5/GpH7-B3 variant S337_16H/GpL16-k0 (antibody, human IgG1, kappa)
heavy 1: not shown
heavy 2: not shown
light: B1 light
notes: as for B6
B35: GpH7-A5/GpH7-B3 variant V266_06M/GpL16-k0 (antibody, human IgG1, kappa)
heavy 1: not shown
heavy 2: not shown
light: B1 light
notes: as for B6
B36: GpH7-A5/GpH7-B3 variant S337_18N/GpL16-k0 (antibody, human IgG1, kappa)
heavy 1: not shown
heavy 2: not shown
light: B1 light
notes: as for B6
B37: GpH7-A5/GpH7-B3 variant S337_08L/GpL16-k0 (antibody, human IgG1, kappa)
heavy 1: not shown
heavy 2: not shown
light: B1 light
notes: as for B6
B38: GpH7-A5/GpH7-B3 variant S337_07I/GpL16-k0 (antibody, human IgG1, kappa)
heavy 1: not shown
heavy 2: not shown
light: B1 light
notes: as for B6
B39: GpH7-A5/GpH7-B3 variant Y296_14T/GpL16-k0 (antibody, human IgG1, kappa)
heavy 1: not shown
heavy 2: not shown
light: B1 light
notes: as for B6
B40: GpH7-A5/GpH7-B3 variant S337_19Q/GpL16-k0 (antibody, human IgG1, kappa)
heavy 1: not shown
heavy 2: not shown
light: B1 light
notes: as for B6
B41: GpH7-A5/GpH7-B3 variant S337_09D/GpL16-k0 (antibody, human IgG1, kappa)
heavy 1: not shown
heavy 2: not shown
light: B1 light
notes: as for B6
B42: GpH7-A5/GpH7-B3 variant T335_18N/GpL16-k0 (antibody, human IgG1, kappa)
heavy 1: not shown
heavy 2: not shown
light: B1 light
notes: as for B6
B43: GpH7-A5/GpH7-B3 variant Y300_18N/GpL16-k0 (antibody, human IgG1, kappa)
heavy 1: not shown
heavy 2: not shown
light: B1 light
notes: as for B6
B44: GpH7-A5/GpH7-B3 variant Y296_18N/GpL16-k0 (antibody, human IgG1, kappa)
heavy 1: not shown
heavy 2: not shown
light: B1 light
notes: as for B6
B45: GpH7-A5/GpH7-B3 variant Y296_10E/GpL16-k0 (antibody, human IgG1, kappa)
heavy 1: not shown
heavy 2: not shown
light: B1 light
notes: as for B6
B46: GpH7-A5/GpH7-B3 variant T335_05P/GpL16-k0 (antibody, human IgG1, kappa)
heavy 1: not shown
heavy 2: not shown
light: B1 light
notes: as for B6
B47: GpH7-A5/GpH7-B3 variant Y296_06M/GpL16-k0 (antibody, human IgG1, kappa)
heavy 1: not shown
heavy 2: not shown
light: B1 light
notes: as for B6

Each binder was assayed against T3, FcγRIa (human, UniProt P12314 16-292) (assay: SPR (Biacore), relative to GpH7-A5/GpH7-B3/GpL16-k0 = 100).
T3 construct: extracellular domain; also called FcgRI; FcgRIa
Procedure: (§1) The heterodimerized antibodies He Abs in which one of the H chains was introduced with an alteration were assayed for their binding activities to each activating FcγR and inhibitory FcγR according to the method described in Example 4. […] The activating FcγRs in FIGS. 26, 27, 28, and 29 are FcγRIa, FcγRIIa (R), FcγRIIa (H), and FcγRIIIa, respectively.
(§2) Analysis of interaction between objective antibody and the FcγR was carried out using Biacore T100 (GE Healthcare). HBS-EP+ (GE Healthcare) was used as the running buffer, and the measurement temperature was set to 25° C. Chips produced by immobilizing the antigen peptide by the amine coupling method to a Series S Sencor Chip CM5 (GE Healthcare), or alternatively, chips produced by allowing preliminarily biotinylated antigen peptides to interact with and immobilize onto a Series S Sensor Chip SA (certified) (GE Healthcare) were used. Antibodies of interest were captured onto an antigen peptide-immobilized chip, and allowed to interact to each FcγR diluted with running buffer. To regenerate and repeatedly use the chip, the antibodies captured on the chip were washed off by reacting 10 mM glycine-HCl, pH 1.5.

T3 sequence (P12314 16-292): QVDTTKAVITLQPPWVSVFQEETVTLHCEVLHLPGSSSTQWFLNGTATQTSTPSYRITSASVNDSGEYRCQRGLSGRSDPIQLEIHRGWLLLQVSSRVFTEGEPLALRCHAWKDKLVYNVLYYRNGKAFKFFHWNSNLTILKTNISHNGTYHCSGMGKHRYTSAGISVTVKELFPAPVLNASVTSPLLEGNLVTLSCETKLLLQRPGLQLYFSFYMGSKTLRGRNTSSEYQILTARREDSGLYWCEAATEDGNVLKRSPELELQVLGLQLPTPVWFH

Binder | He/Con_1a (Ia binding)
B1 | 116 relative (control = 100)
B2 | 99.1 relative (control = 100)
B3 | 103 relative (control = 100)
B4 | 99.3 relative (control = 100)
B5 | 86.7 relative (control = 100)

These binders were tested against T1, FcγRIIb in the same assay as above.
Procedure: as §1, §2

Binder | He/Con_2b (IIb binding)
B1 | 48.4 relative (control = 100)
B2 | 63.7 relative (control = 100)
B3 | 59.5 relative (control = 100)
B4 | 69.3 relative (control = 100)

These binders were tested against T2, FcγRIIa R (human FcγRIIa, allotype R, …) (assay: SPR (Biacore), relative binding vs GpH7-A5/GpH7-B3/GpL16-k0).
Procedure: as §2
The FcγR-binding activity of each antibody was assessed primarily using as an indicator the FcγR-binding activity and dissociation constant for FcγR.

Binder | He/Con_2aR
B6 | 106 relative, control = 100
B7 | 109 relative, control = 100
B8 | 111 relative, control = 100
B9 | 105 relative, control = 100
B10 | 105 relative, control = 100
B11 | 110 relative, control = 100
B12 | 106 relative, control = 100
B13 | 103 relative, control = 100
B14 | 109 relative, control = 100
B15 | 109 relative, control = 100
B16 | 102 relative, control = 100
B17 | 112 relative, control = 100
B18 | 104 relative, control = 100
B19 | 102 relative, control = 100
B20 | 107 relative, control = 100
B21 | 102 relative, control = 100
B22 | 110 relative, control = 100
B23 | 101 relative, control = 100
B24 | 102 relative, control = 100
B25 | 105 relative, control = 100
B26 | 111 relative, control = 100

Binder | He/Con_2aR
B27 | 110 relative, control = 100
B28 | 106 relative, control = 100
B29 | 105 relative, control = 100
B30 | 108 relative, control = 100
B31 | 100 relative, control = 100
B32 | 103 relative, control = 100
B33 | 101 relative, control = 100
B34 | 109 relative, control = 100
B35 | 150 relative, control = 100
B36 | 107 relative, control = 100
B37 | 107 relative, control = 100
B38 | 109 relative, control = 100
B39 | 103 relative, control = 100
B40 | 106 relative, control = 100
B41 | 115 relative, control = 100
B42 | 106 relative, control = 100
B43 | 100 relative, control = 100
B44 | 104 relative, control = 100
B45 | 103 relative, control = 100
B46 | 104 relative, control = 100
B47 | 101 relative, control = 100

The binders below were run against T3, FcγRIa (assay: SPR (Biacore); He/Con_1a (FcgRIa) divided by He/Con_2b (FcgRIIb)).
Procedure: as §1, §2

Binder | Ia/IIb He_1a/2b
B1 | 2.4
B2 | 1.56
B3 | 1.74
B4 | 1.43
B5 | 9.64
